Article PMC8191777
Numbering of substitutions follows the chain as printed.

What was measured:
[1] = biological target: T1, TbTRF-lMyb280-382 (Trypanosoma brucei) (UniProt Q4VHG6); assay: EMSA
T1 sequence: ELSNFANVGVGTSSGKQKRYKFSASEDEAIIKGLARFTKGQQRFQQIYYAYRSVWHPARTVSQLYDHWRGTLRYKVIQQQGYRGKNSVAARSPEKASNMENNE

[2] = biological target: T2, TbTRF-lMyb280-382 R298E R298E (Trypanosoma brucei) (UniProt Q4VHG6); assay: EMSA
T2 sequence: T1 sequence with R19E

Sequence | Kd [1] [nM] | Kd [2] [nM]
UUAGGGUUAGGGUUAGGGUUAGGGUUAGGGUUAGGGUUAGGGUUAGGGUUAGGGUUAGGGUUAGGGUUAGGG [ss(UUAGGG)12] | 268 | 5
CCCUAACCCUAACCCUAACCCUAACCCUAACCCUAACCCUAACCCUAACCCUAACCCUAACCCUAACCCUAA [ss(CCCUAA)12] | 17200 | 36
